B1: Intersectin-1, residues 909 to 971; numbered along this chain, Q15811 (parent)
chain: QGEKVEGLQAQALYPWRAKKDNHLNFNKNDVITVLEQQDMWWFGEVQGQKGWFPKSYVKLISG

± gives the uncertainty stated by the source.

Variants of B1 are the subject of this data set. The data set is described as follows: abundance fitness (aPCA) (normalised: wild type 0, dead -1); higher = more abundant; growth selection in yeast, the domain comes from the species named. The conditions noted are these: Homo sapiens.
In the case of QGEKQEGLQAQALYPWRAKKDNHLNFNKNDVITVLEQQDMWWFGEVQGQKGWFPKSYVKLISG, the abundance fitness was -0.029 ± 0.14.

In the case of QGEKPEGLQAQALYPWRAKKDNHLNFNKNDVITVLEQQDMWWFGEVQGQKGWFPKSYVKLISG, the abundance fitness was -0.07 ± 0.21.

As for QGEKWEGLQAQALYPWRAKKDNHLNFNKNDVITVLEQQDMWWFGEVQGQKGWFPKSYVKLISG, the abundance fitness is -0.106 ± 0.22.

Take QGEKSEGLQAQALYPWRAKKDNHLNFNKNDVITVLEQQDMWWFGEVQGQKGWFPKSYVKLISG: the abundance fitness is -0.115 ± 0.2. In the case of QGEKTEGLQAQALYPWRAKKDNHLNFNKNDVITVLEQQDMWWFGEVQGQKGWFPKSYVKLISG it was -0.237 ± 0.16; in that of QGEKVEDLQAQALYPWRAKKDNHLNFNKNDVITVLEQQDMWWFGEVQGQKGWFPKSYVKLISG, -0.095 ± 0.12. With QGEKVEVLQAQALYPWRAKKDNHLNFNKNDVITVLEQQDMWWFGEVQGQKGWFPKSYVKLISG the figure was 0.076 ± 0.33; with QGEKVEQLQAQALYPWRAKKDNHLNFNKNDVITVLEQQDMWWFGEVQGQKGWFPKSYVKLISG, 0.164 ± 0.41; with QGEKVESLQAQALYPWRAKKDNHLNFNKNDVITVLEQQDMWWFGEVQGQKGWFPKSYVKLISG, 0.006 ± 0.12. With QGEKVERLQAQALYPWRAKKDNHLNFNKNDVITVLEQQDMWWFGEVQGQKGWFPKSYVKLISG the figure was -0.227 ± 0.4; with QGEKVEGEQAQALYPWRAKKDNHLNFNKNDVITVLEQQDMWWFGEVQGQKGWFPKSYVKLISG, -0.003 ± 0.11; with QGEKVEGDQAQALYPWRAKKDNHLNFNKNDVITVLEQQDMWWFGEVQGQKGWFPKSYVKLISG, -0.236 ± 0.13.

Turning to QGEKVEGWQAQALYPWRAKKDNHLNFNKNDVITVLEQQDMWWFGEVQGQKGWFPKSYVKLISG, the abundance fitness was -0.152 ± 0.11. In the case of QGEKVEGYQAQALYPWRAKKDNHLNFNKNDVITVLEQQDMWWFGEVQGQKGWFPKSYVKLISG it was 0.112 ± 0.3. In the case of QGEKVEGMQAQALYPWRAKKDNHLNFNKNDVITVLEQQDMWWFGEVQGQKGWFPKSYVKLISG it was 0.094 ± 0.13.

As to QGEKVEGIQAQALYPWRAKKDNHLNFNKNDVITVLEQQDMWWFGEVQGQKGWFPKSYVKLISG, the abundance fitness was -0.136 ± 0.31.

Turning to QGEKVEGGQAQALYPWRAKKDNHLNFNKNDVITVLEQQDMWWFGEVQGQKGWFPKSYVKLISG, the abundance fitness is -0.048 ± 0.066.

In the case of QGEKVEGRQAQALYPWRAKKDNHLNFNKNDVITVLEQQDMWWFGEVQGQKGWFPKSYVKLISG, the abundance fitness is -0.087 ± 0.072. Take QGEKVEGSQAQALYPWRAKKDNHLNFNKNDVITVLEQQDMWWFGEVQGQKGWFPKSYVKLISG: the abundance fitness is -0.117 ± 0.11. On to QGEKVEGHQAQALYPWRAKKDNHLNFNKNDVITVLEQQDMWWFGEVQGQKGWFPKSYVKLISG, for which the abundance fitness was -0.361 ± 0.3.

QGEKVEGTQAQALYPWRAKKDNHLNFNKNDVITVLEQQDMWWFGEVQGQKGWFPKSYVKLISG: the abundance fitness was -0.039 ± 0.18. With QGEKVEGPQAQALYPWRAKKDNHLNFNKNDVITVLEQQDMWWFGEVQGQKGWFPKSYVKLISG, the abundance fitness is -0.345 ± 0.2. With QGEKVEGQQAQALYPWRAKKDNHLNFNKNDVITVLEQQDMWWFGEVQGQKGWFPKSYVKLISG, the abundance fitness worked out at 0.05 ± 0.13. Consider QGEKVEGVQAQALYPWRAKKDNHLNFNKNDVITVLEQQDMWWFGEVQGQKGWFPKSYVKLISG, for which the abundance fitness turned out to be 0.14 ± 0.082. With QGEKVEGKQAQALYPWRAKKDNHLNFNKNDVITVLEQQDMWWFGEVQGQKGWFPKSYVKLISG the figure was -0.136 ± 0.15; with QGEKVEGAQAQALYPWRAKKDNHLNFNKNDVITVLEQQDMWWFGEVQGQKGWFPKSYVKLISG, 0.043 ± 0.092; with QGEKVFGLQAQALYPWRAKKDNHLNFNKNDVITVLEQQDMWWFGEVQGQKGWFPKSYVKLISG, -0.178 ± 0.24. Consider QGEKVPGLQAQALYPWRAKKDNHLNFNKNDVITVLEQQDMWWFGEVQGQKGWFPKSYVKLISG, for which the abundance fitness was 0.074 ± 0.12. With QGEKVRGLQAQALYPWRAKKDNHLNFNKNDVITVLEQQDMWWFGEVQGQKGWFPKSYVKLISG, the abundance fitness was -0.108 ± 0.097.

Take QGEKVKGLQAQALYPWRAKKDNHLNFNKNDVITVLEQQDMWWFGEVQGQKGWFPKSYVKLISG: the abundance fitness was -0.306 ± 0.27.

On to QGEKVSGLQAQALYPWRAKKDNHLNFNKNDVITVLEQQDMWWFGEVQGQKGWFPKSYVKLISG, for which the abundance fitness is -0.16 ± 0.12. In the case of QGEKVDGLQAQALYPWRAKKDNHLNFNKNDVITVLEQQDMWWFGEVQGQKGWFPKSYVKLISG it was -0.221 ± 0.26.

On to QGEKVLGLQAQALYPWRAKKDNHLNFNKNDVITVLEQQDMWWFGEVQGQKGWFPKSYVKLISG, for which the abundance fitness was -0.1 ± 0.12. In the case of QGEKVMGLQAQALYPWRAKKDNHLNFNKNDVITVLEQQDMWWFGEVQGQKGWFPKSYVKLISG it was -0.069 ± 0.25; in that of QGEKVTGLQAQALYPWRAKKDNHLNFNKNDVITVLEQQDMWWFGEVQGQKGWFPKSYVKLISG, -0.215 ± 0.12. In the case of QGEKVIGLQAQALYPWRAKKDNHLNFNKNDVITVLEQQDMWWFGEVQGQKGWFPKSYVKLISG it was -0.29 ± 0.23; in that of QGEKVAGLQAQALYPWRAKKDNHLNFNKNDVITVLEQQDMWWFGEVQGQKGWFPKSYVKLISG, -0.139 ± 0.11. With QGEKVNGLQAQALYPWRAKKDNHLNFNKNDVITVLEQQDMWWFGEVQGQKGWFPKSYVKLISG the figure was -0.079 ± 0.19. QGEKVVGLQAQALYPWRAKKDNHLNFNKNDVITVLEQQDMWWFGEVQGQKGWFPKSYVKLISG: the abundance fitness is -0.122 ± 0.17.

For QGEKVYGLQAQALYPWRAKKDNHLNFNKNDVITVLEQQDMWWFGEVQGQKGWFPKSYVKLISG, the abundance fitness was -0.119 ± 0.24. Regarding QGEKVCGLQAQALYPWRAKKDNHLNFNKNDVITVLEQQDMWWFGEVQGQKGWFPKSYVKLISG, the abundance fitness is -0.174 ± 0.2. In the case of QGEKVEGLAAQALYPWRAKKDNHLNFNKNDVITVLEQQDMWWFGEVQGQKGWFPKSYVKLISG it was -0.07 ± 0.092; in that of QGEKVEGLCAQALYPWRAKKDNHLNFNKNDVITVLEQQDMWWFGEVQGQKGWFPKSYVKLISG, -0.109 ± 0.17.

The values are drawn from the Human Domainome abundance scans (Beltran et al. 2025).
